Experimental data taken from patent US20140363434A1 (COMPLIX, published 2014).

Columns and labels:
[1] = target: T1, GST-tagged recombinant human BCL-2 isoform alpha (BCL-2a) with a C-terminal deletion of 32 amino acids (human, UniProt P10415 1-207); test: ELISA: Alphabody (500 nM) captured by anti-V5 antibody, five-fold dilutions of GST-BCL-2a, anti-GST-HRP detection; printed as 'binding affinity'
T1 construct: Produced in E. coli and purified by the GST tag; not shown: Glutathione S Transferase (GST) tag at the N-terminus
T1 sequence (P10415 1-207, stated change not applied, form in doubt): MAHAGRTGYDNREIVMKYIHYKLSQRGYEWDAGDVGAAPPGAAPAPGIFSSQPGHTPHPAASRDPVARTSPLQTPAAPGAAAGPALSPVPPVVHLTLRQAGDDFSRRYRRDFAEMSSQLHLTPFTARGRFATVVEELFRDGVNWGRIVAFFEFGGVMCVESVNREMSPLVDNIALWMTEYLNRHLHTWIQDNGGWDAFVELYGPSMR

[2] = target: T2, GST-tagged recombinant human BCL-XL with a C-terminal deletion of 24 amino acids (human, UniProt Q07817 1-209); test: ELISA: Alphabody (500 nM) captured by coated anti-V5 antibody; five-fold dilutions of GST-BCL-XL detected with anti-GST antibody-HRP; OD 492/630 nm
T2 construct: Produced in E. coli and purified by the GST tag; not shown: Glutathione S Transferase (GST) tag at the N-terminus
T2 sequence (Q07817 1-209, stated change not applied, form in doubt): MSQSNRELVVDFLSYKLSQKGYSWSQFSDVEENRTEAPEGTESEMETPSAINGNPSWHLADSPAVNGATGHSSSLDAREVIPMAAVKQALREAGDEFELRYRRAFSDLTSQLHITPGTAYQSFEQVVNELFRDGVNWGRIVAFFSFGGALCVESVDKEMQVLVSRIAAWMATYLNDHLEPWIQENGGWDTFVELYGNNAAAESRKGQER

[3] = target: T3, GST-tagged recombinant human MCL-1 (residues 172 to 327) (human, UniProt Q07820 172-327); test: ELISA: Alphabody (500 nM) captured by coated anti-V5 antibody; five-fold dilutions of GST-tagged protein detected with anti-GST antibody-HRP; OD 492/630 nm
T3 construct: Produced in E. coli and purified by the GST tag; also called recombinant MCL-1
T3 sequence (Q07820 172-327 limits assumed): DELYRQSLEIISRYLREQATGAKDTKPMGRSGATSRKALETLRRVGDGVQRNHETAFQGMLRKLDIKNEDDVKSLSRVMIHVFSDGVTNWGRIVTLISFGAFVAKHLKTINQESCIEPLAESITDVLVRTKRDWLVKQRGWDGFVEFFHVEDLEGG
Method: (§1) Alphabody (500 nM) was captured by immobilized anti-V5 antibody (5 microg/ml) to a microtiterplate. Binding of five-fold dilutions of Glutathione S transferase (GST)-tagged recombinant BCL-2 family proteins MCL-1, BCL-XL and BCL-2a was detected using a anti-GST antibody conjugated to Horse Radish Peroxidase. Plates were read at 492 nm and 630 nm.
(§2) Maxisorp Nunc plates were coated with 100 microl anti-V5 antibody (5 microg/ml) in carbonate buffer pH 9.6 overnight at 4° C. The next day, the plates were washed 3 times with Tris Buffered Saline containing 0.05% Tween 20 (TBST) and blocked with TBS containing 0.1% BSA and 0.5% gelatin for 2 h at 37° C. […] Plates were washed 10 times with TBST and five-fold dilutions of Glutathione S transferase (GST) tagged recombinant BCL-2 family proteins (MCL-1, BCL-XL and BCL-2a) were added and further incubated for 2 h at RT while shaking. Binding of GST-tagged recombinant BCL-2 family proteins was detected using an anti-GST antibody conjugated to Horse Radish Peroxidase. Signals were developed by reacting with ortho-phenylenediamine and the reaction was stopped with 4 M H₂SO₄ when the OD reached a value between 2 and 3.

[4] = target: T2, GST-tagged recombinant human BCL-XL …; test: as above
Method: as §1, §2

[5] = target: T3, GST-tagged recombinant human MCL-1 …; test: ELISA: Alphabody (500 nM) captured by coated anti-V5 antibody; five-fold dilutions of GST-MCL-1 detected with anti-GST antibody-HRP; OD 492/630 nm
Method: (§3) Alphabody (500 nM) was captured by immobilized anti-V5 antibody (5 microg/ml) to a microtiterplate. Binding of five-fold dilutions of Glutathione S transferase (GST)-tagged recombinant BCL-2 family proteins MCL-1 (FIG. 26A), BCL-XL (FIG. 26B) and BCL-2a (FIG. 26C) was detected using a anti-GST antibody conjugated to Horse Radish Peroxidase. Plates were read at 492 nm and 630 nm.
as §2

[6] = target: T3, GST-tagged recombinant human MCL-1 …; test: ELISA: Alphabody (500 nM) captured by anti-V5 antibody, five-fold dilutions of GST-MCL-1, anti-GST-HRP detection; printed as 'binding affinity'
Method: as §3, §2

[7] = target: T2, GST-tagged recombinant human BCL-XL …; test: ELISA: Alphabody (500 nM) captured by anti-V5 antibody, five-fold dilutions of GST-BCL-XL, anti-GST-HRP detection; printed as 'binding affinity'
Method: as §1, §2

[8] = target: T4, MCL-1 in MCL-1 transfected HEK cell lysate (Santa Cruz) (UniProt Q07820 1-350, limits assumed); test: dot blot: MCL-1 transfected HEK cell lysate spotted on nitrocellulose, incubated with Alphabody, detected with anti-His antibody-HRP
T4 construct: The target was spotted as a whole cell lysate on nitrocellulose, not as purified protein; also called MCL-1 cell lysate; Mcl-1 cell lysate
T4 sequence (Q07820 whole entry): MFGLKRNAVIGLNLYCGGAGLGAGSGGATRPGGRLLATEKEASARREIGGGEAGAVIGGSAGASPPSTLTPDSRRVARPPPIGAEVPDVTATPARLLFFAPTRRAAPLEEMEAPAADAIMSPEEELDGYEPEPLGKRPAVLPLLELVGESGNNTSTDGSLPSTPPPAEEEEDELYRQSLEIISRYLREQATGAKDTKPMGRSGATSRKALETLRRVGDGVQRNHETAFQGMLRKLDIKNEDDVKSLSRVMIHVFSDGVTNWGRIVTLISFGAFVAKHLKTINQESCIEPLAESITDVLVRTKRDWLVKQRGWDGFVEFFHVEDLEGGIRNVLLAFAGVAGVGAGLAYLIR

B1: AB1_pan_hiKR3-V5 (designed binder)
chain: MSIEEIQKQFKRIQKQIKRIAKQIKRMTGGSGGSGGMSIEEIAAQIAAIQLRIIGDQFNIYYMTGSGGGGSGGSIEEIKKSIRAIQKEIKKIQKKIKKMTPHHHHHHHHHHGKPIPNPLLGLDST
notes: Cationized Alphabody with C-terminal His-tag and V5 tag
Kd [1]: ~18.7 nM
EC50 (read off the curve) [2]: ~4 nM
EC50 (read off the curve) [3]: ~2 nM
EC50 (read off the curve) [4]: ~4 nM
EC50 (read off the curve) [5]: ~2 nM
Kd [6]: ~1.9 nM
Kd [7]: ~4.5 nM

B2: tat-013 Alphabody (designed binder)
chain: YGRKKRRQRRRMSIEEIQKQIAAIQKQIAAIQKQIYAMTGGSGGGSGGGSGGGSGMSIEEIQKQIAAIQKQIAAIQKQIYAMTGGSGGGSGGGSGGGSGMSIEEIQKQIAAIQKQIAAIQKQIYAMTP
notes: also called tat-tagged control Alphabody scAB013
binding result [8]: no binding (tested: 10 uM)

B3: MB23_hiR-V5 (designed binder)
chain: MSIEQIQKEITTIQEVIAAIQKYIYTMTGGSGGSGGMSIQQIQAAIRRIQRAIRRIQRAIRRMTGSGGGGSGMSIEEIQKQIAAIQEQIVAIYKQIMAMASHHHHHHGKPIPNPLLGLDST
notes: Cationized Alphabody directed against IL-23, used as the negative control; also called control Alphabody MB23_hiR-V5; cationized MB23
binding result [5]: no binding (tested: 200 nM)

B4: AB1_A2aF_hiKR3-V5 (designed binder)
chain: MSIQQIQKQFKRIQKQIKRIEKQIKRMTGGSGGSGGMSIEEITKQIAAIQLRIVGDQVQIYAMTGGSGGGSGGGSGGGSGGSIEEIKKSIRAIQKEIKKIQKKIKKMTPHHHHHHHHHHGKPIPNPLLGLDST
notes: Cationized MCL-1 Alphabody with C-terminal His-tag and V5 tag
EC50 (read off the curve) [5]: ~1 nM
Kd [6]: 1 nM
